Experimental data: the supplement of paper PMC9732359
± gives the uncertainty stated by the source.

Test: protein stability index of a GFP-peptide fusion (yeast GPS) (PSI 1-4); higher = more stable; sorted into four equal gates, so the index is relative within each strain
Summary of the method: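 Peptides tiling yeast proteins in 17-residue segments were fused downstream of GFP, with Cherry expressed from the same plasmid. As a pooled library in yeast, mid-log cultures grown in leucine-free medium were sorted into four equal gates by GFP/Cherry fluorescence ratio. Gate plasmids were PCR-amplified and Illumina-sequenced, and barcodes linked reads to strains. Each peptide received a protein stability index equal to the sum of each gate's read frequency times its gate number.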

Sequence | protein stability index (doa10∆) | protein stability index (pdr5∆) | protein stability index (san1∆) | protein stability index (ubr1∆)
QQQQQQQQGQIPQSQQV [SNF5] | 2.231 ± 0.016 | 2.63 ± 0.018 | 2.257 ± 0.02 | 2.511 ± 0.02
KLQLSFVLQMVGKTAQS [SRP72] | – | – | 1.42 ± 0.16 | –
NEPSQSLISTRNDSTVN [BRN1] | 3.16 ± 0.07 | 3.17 ± 0.086 | 3.08 ± 0.071 | 2.82 ± 0.045
VKWQYDPNNPVDFDGLD [SNF12] | 2.74 ± 0.062 | 3.02 ± 0.053 | 2.25 ± 0.07 | 2.87 ± 0.03
RVISEYYSRITLLRLNE [RPN5] | 2.65 ± 0.076 | 1.67 ± 0.05 | 1.68 ± 0.084 | 1.87 ± 0.068
LDQLLVLEKKTRQASDL [RPN5] | 3.19 ± 0.12 | 2.95 ± 0.1 | 3.1 ± 0.07 | 2.71 ± 0.097
VLKKKNIQKKQPAKEKG [RRP6] | 3 ± 0.085 | 3.03 ± 0.067 | 3.09 ± 0.042 | 3.22 ± 0.044
DELVKLLLDNGFNMKKI [SRP68] | – | – | 2.98 ± 0.24 | 3.52 ± 0.13
TKKISNFNSSLHKRQQF [YJL039C/NUP192] | 2.73 ± 0.13 | 2.79 ± 0.12 | 1.4 ± 0.18 | 1.6 ± 0.11
EDARRNPNPSSQRAQVV [RPC37] | 3.18 ± 0.073 | 3.26 ± 0.064 | 3.02 ± 0.064 | 3.38 ± 0.054
LQCHISGTTNFMRNGLL [UBP6] | 1.64 ± 0.1 | 1.66 ± 0.081 | 1.81 ± 0.15 | 2.31 ± 0.17
VLCNSNISKSRAKPVTN [RRP6] | 2.3 ± 0.083 | 2.67 ± 0.096 | 2.09 ± 0.11 | 2.14 ± 0.067
HDLLQIIHFHSHPEKRM [SSN3] | 2.62 ± 0.053 | 2.71 ± 0.053 | 2.65 ± 0.046 | 2.79 ± 0.039
HPGFGCWLSSVDVNTQK [RPN11] | 1.25 ± 0.23 | 1.25 ± 0.24 | – | –
RRDDEVLVVRGSKKGQE [RPL26A] | 3.63 ± 0.087 | 3.36 ± 0.089 | 3.59 ± 0.079 | 3.57 ± 0.085
SAASIPPQQTYHFPIFN [RPN4] | 2.55 ± 0.044 | 2.83 ± 0.045 | 2.52 ± 0.035 | 2.68 ± 0.031
TKQASSFSFLNRADGTG [YLR335W/NUP2] | – | – | – | 1.45 ± 0.2
DSFSGAKIYPGRGTLFV [RPL24A] | 3.13 ± 0.065 | 3.08 ± 0.067 | 2.78 ± 0.06 | 2.68 ± 0.052
GTGKTLLAKAVANQTSA [RPT2] | 1.96 ± 0.085 | 1.95 ± 0.1 | 2.72 ± 0.16 | 1.89 ± 0.092
VENYETSSAFFYQQVHK [SIR4] | 2.75 ± 0.04 | 2.57 ± 0.042 | 2.43 ± 0.045 | 2.52 ± 0.03
MDALTLMKCCHEAYSII [RRP45] | 1.77 ± 0.063 | 2.04 ± 0.071 | 1.84 ± 0.099 | 1.76 ± 0.12
ILYGLVDKGAIMKNKDF [YJL039C/NUP192] | – | 2.32 ± 0.2 | 3.06 ± 0.21 | 1.58 ± 0.15
SSTDFSTCIVSLIRNNL [ECM29] | 2.7 ± 0.066 | 2.99 ± 0.092 | 2.41 ± 0.063 | 2.88 ± 0.054
ENSANSTVASALDTNGT [SIR4] | 3.08 ± 0.097 | 3.18 ± 0.073 | 2.79 ± 0.09 | 2.86 ± 0.069
ITPMNDDQCMLITTYSK [SIN4] | 1.93 ± 0.064 | 2.41 ± 0.075 | 1.98 ± 0.22 | 1.99 ± 0.038
IREGQNQKIPDNVIVIN [SIR3] | 2.9 ± 0.049 | 3.12 ± 0.065 | 2.98 ± 0.057 | 3 ± 0.046
NDLDYDLIADTITNSSS [YML103C/NUP188] | 2.9 ± 0.061 | 3.06 ± 0.067 | 2.99 ± 0.036 | 3.02 ± 0.048

Sequence | protein stability index (doa10∆) | protein stability index (pdr5∆) | protein stability index (san1∆) | protein stability index (ubr1∆)
NEVKEWAVTLDTSRPDL [DSN1] | 2.96 ± 0.11 | 3.15 ± 0.091 | 3.02 ± 0.052 | 3.15 ± 0.041
RLQQQQAQAQAQANNNN [GAL11] | 2.03 ± 0.093 | 2.55 ± 0.078 | 2.74 ± 0.076 | 2.04 ± 0.06
SVEWMKVSPSMCGVIVK [SIN4] | 1.74 ± 0.055 | 1.69 ± 0.051 | 1.69 ± 0.091 | 1.54 ± 0.063
VGFGESNFTSIIGPNGS [SMC1] | 3.37 ± 0.09 | 3.34 ± 0.078 | 3.15 ± 0.047 | 3.07 ± 0.054
NMLICAPTGSGKTNIAL [BRR2] | 2.55 ± 0.079 | 3.12 ± 0.08 | 2.12 ± 0.091 | 2.98 ± 0.053
GYENGMLAQWDLRSPEC [RPN14] | 3.15 ± 0.29 | 3.6 ± 0.2 | – | 3.65 ± 0.16
TEKMEEQLDLLSAILDP [MED11] | 3.14 ± 0.087 | 3 ± 0.1 | 3.13 ± 0.12 | 3.4 ± 0.1
PIIIYGTENTERPPLLP [YOR098C/NUP1] | 3.13 ± 0.09 | 2.74 ± 0.1 | 2.97 ± 0.06 | 2.94 ± 0.048
LNIKPLLDAGCKVVAEM [SKP1] | 2.44 ± 0.083 | 2.51 ± 0.081 | 1.85 ± 0.1 | 2.47 ± 0.054
ITGGIIEETSAAIKDLD [RRP43] | 3.13 ± 0.2 | – | – | –
LKSFTESTAGSASTSAT [ECM29] | 2.82 ± 0.067 | 3.14 ± 0.061 | 3.06 ± 0.053 | 3.15 ± 0.04
SNLSPDLKFKRHKNKHI [DSN1] | 2.71 ± 0.1 | 2.58 ± 0.15 | 2.28 ± 0.077 | 2.17 ± 0.13
NEYVAKVSAREKSAYKF [FAS2] | 3.23 ± 0.082 | 3.16 ± 0.073 | 3.04 ± 0.093 | 3.32 ± 0.061
MAKCLDNPDQGISDMCR [YCS4] | 3.39 ± 0.19 | 3.55 ± 0.13 | 3.33 ± 0.13 | 3.2 ± 0.15
DLETSLSQSSSYLETLT [MED2] | 2.94 ± 0.075 | 3.12 ± 0.11 | 2.7 ± 0.077 | 2.96 ± 0.099
LQPFWFRVNNASINTSA [ECM29] | 1.66 ± 0.1 | 1.49 ± 0.068 | 1.26 ± 0.16 | 1.49 ± 0.071
DVSVKMGNTKVHCRISC [RRP45] | 2.21 ± 0.14 | 2.28 ± 0.092 | 2.17 ± 0.061 | 2.09 ± 0.074
EKWISSKNSKLSIICVG [SIR3] | 1.82 ± 0.091 | 1.52 ± 0.075 | 1.37 ± 0.17 | 1.23 ± 0.073
DKETQLKKRAVSGVELR [POP7] | 2.7 ± 0.21 | 2.57 ± 0.26 | 2.36 ± 0.18 | 2.27 ± 0.25
ALYRVNDLRDMILNYNP [UBP6] | 2.81 ± 0.12 | 2.73 ± 0.19 | 2.81 ± 0.17 | 2.99 ± 0.12
NGKTRTLENTLKAAFVA [RPS2] | 2.85 ± 0.11 | 2.8 ± 0.14 | 3 ± 0.089 | 2.67 ± 0.085
LLKSNDPLLSLYNFLHK [RGR1] | 2.31 ± 0.056 | 2.23 ± 0.053 | 2.54 ± 0.048 | 2.55 ± 0.041
HDISKTETSNEDEDEDD [SNU114] | 3.02 ± 0.058 | 3.03 ± 0.057 | 2.98 ± 0.039 | 3.08 ± 0.037
FTNPSVDIQIINQYQLL [SWI1] | 1.44 ± 0.055 | 1.66 ± 0.07 | 1.43 ± 0.11 | 1.31 ± 0.063
LKAKNQEEEGELEHLTK [DSN1] | 3.42 ± 0.076 | 3.35 ± 0.066 | 3.31 ± 0.047 | 3.39 ± 0.047
KSLGGGAALKDIEIVRV [FAS2] | 2.27 ± 0.26 | 3.39 ± 0.15 | 3.17 ± 0.088 | –
